Source: paper PMC9946822, “Widely conserved AHL transcription factors are essential for NCR gene expression and nodule development in Medicago”

Legend:
Test in all cases: EMSA; 0-300 ng protein titration; EMSA as in Chen (ref. 37), 10 ng probe and 200 ng protein (titration 0-300 ng), SYBR Gold stain; binding buffer, pH and temperature not stated; protein eluted in BS/THES (22 mM Tris-HCl pH 7.5, 4.4 mM EDTA, 8.9% sucrose, 62 mM NaCl, 10 mM HEPES, 5 mM CaCl2, 50 mM KCl, 12% glycerol) with 150 mM imidazole
Conditions in all cases: protein: recombinant; tags: His (pET28a); blunt
[1] = molecular target: GmAHL1 (Glycine max, UniProt C6TMY6 1-268)
GmAHL1, sequence (C6TMY6 entry or part of it): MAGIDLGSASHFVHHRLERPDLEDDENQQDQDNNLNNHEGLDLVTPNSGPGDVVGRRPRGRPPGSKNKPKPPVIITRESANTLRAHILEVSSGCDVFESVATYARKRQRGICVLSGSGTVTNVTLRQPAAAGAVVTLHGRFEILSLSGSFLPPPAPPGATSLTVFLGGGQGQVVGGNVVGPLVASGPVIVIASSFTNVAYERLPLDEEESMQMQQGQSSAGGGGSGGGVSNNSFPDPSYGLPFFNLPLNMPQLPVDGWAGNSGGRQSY

[2] = molecular target: MtAHL2 (Medicago truncatula, UniProt G7KSI4 1-269)
MtAHL2, sequence (G7KSI4 entry or part of it): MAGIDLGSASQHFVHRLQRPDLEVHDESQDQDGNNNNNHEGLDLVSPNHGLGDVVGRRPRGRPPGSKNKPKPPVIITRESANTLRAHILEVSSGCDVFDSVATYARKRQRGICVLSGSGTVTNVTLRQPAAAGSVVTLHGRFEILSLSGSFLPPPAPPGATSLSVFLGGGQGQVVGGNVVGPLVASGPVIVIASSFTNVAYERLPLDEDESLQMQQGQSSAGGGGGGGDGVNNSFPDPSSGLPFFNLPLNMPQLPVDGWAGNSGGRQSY

[3] = molecular target: MtAHL1 (Medicago truncatula, UniProt G7JGG2 1-296)
MtAHL1, sequence (G7JGG2 entry or part of it): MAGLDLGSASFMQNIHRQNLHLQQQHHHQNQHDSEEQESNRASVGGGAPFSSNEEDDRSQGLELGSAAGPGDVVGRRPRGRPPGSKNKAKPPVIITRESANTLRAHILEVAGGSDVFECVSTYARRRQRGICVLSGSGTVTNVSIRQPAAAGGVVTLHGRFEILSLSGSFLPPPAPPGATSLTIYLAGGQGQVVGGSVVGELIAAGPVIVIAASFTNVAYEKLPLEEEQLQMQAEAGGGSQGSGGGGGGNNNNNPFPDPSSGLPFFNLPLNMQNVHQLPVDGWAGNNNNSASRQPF

Measured: binding result

B1: probe H0 (dsDNA)
DNA 1: TTAATAATTATTTTAATTTTCAAAAAGTATTAATTAC
DNA 2: GTAATTAATACTTTTTGAAAATTAAAATAATTATTAA
binds: all assays above
